# Data published in article PMC4858292, “Determination of the CD148-Interacting Region in Thrombospondin-1” (PLoS ONE, 2016).
# Biological target: the molecule itself
# Assay: SDS-PAGE in non-reducing and reducing conditions; purified fragments separated in non-reducing and reducing (50 mM DTT) conditions; colloidal blue stain and anti-Myc immunoblot
protein,measurement,value
"Trimeric TSP1 fragment, oligomerization domain + procollagen + type 1 repeats (aa 261–547) (domain or fragment, human, UniProt P07996 261-547, looked up, Subcloned into HindIII and XbaI sites of the APtag-5 vector; also called trimeric TSP1 fragment containing the procollagen domain and type 1 repeats; trimeric TSP1 fragment that contains all three type 1 repeats; source: HEK293E suspension culture, transient transfection, purified from culture supernatant (HisTrap Excel); not shown: Myc, C-terminal, kept) HKTKDLQAICGISCDELSSMVLELRGLRTIVTTLQDSIRKVTEENKELANELRRPPLCYHNGVQYRNNEEWTVDSCTECHCQNSVTICKKVSCPIMPCSNATVPDGECCPRCWPSDSADDGWSPWSEWTSCSTSCGNGIQQRGRSCDSLNNRCEGSSVQTRTCHIQECDKRFKQDGGWSHWSPWSSCSVTCGDGVITRIRLCNSPSPQMNGKPCEGEARETKACKKDACPINGGWGPWSPWDICSVTCGGGVQKRSRLCNNPTPQFGGKDCVGDVTENQICNKQDCP",stoichiometry N,3
"Trimeric TSP1 fragment, oligomerization domain + procollagen + 1^st & 2^nd type 1 repeats (aa 261–490) (domain or fragment, human, UniProt P07996 261-490, looked up, thrombospondin-1 (TSP1), human, oligomerization domain + procollagen + 1st and 2nd type 1 repeats, aa 261-490; Subcloned into HindIII and XbaI sites of the APtag-5 vector; source: HEK293E suspension culture, transient transfection, purified from culture supernatant (HisTrap Excel); not shown: Myc, C-terminal, kept) HKTKDLQAICGISCDELSSMVLELRGLRTIVTTLQDSIRKVTEENKELANELRRPPLCYHNGVQYRNNEEWTVDSCTECHCQNSVTICKKVSCPIMPCSNATVPDGECCPRCWPSDSADDGWSPWSEWTSCSTSCGNGIQQRGRSCDSLNNRCEGSSVQTRTCHIQECDKRFKQDGGWSHWSPWSSCSVTCGDGVITRIRLCNSPSPQMNGKPCEGEARETKACKKDACP",stoichiometry N,3
"Trimeric TSP1 fragment, oligomerization domain + procollagen and 1^st type 1 repeat (aa 261–429) (domain or fragment, human, UniProt P07996 261-429, looked up, thrombospondin-1 (TSP1), human, oligomerization domain + procollagen + 1st type 1 repeat, aa 261-429; Subcloned into HindIII and XbaI sites of the APtag-5 vector; also called trimeric TSP1 fragment containing the procollagen domain and the 1st type 1 repeat; source: HEK293E suspension culture, transient transfection, purified from culture supernatant (HisTrap Excel); not shown: Myc, C-terminal, …) HKTKDLQAICGISCDELSSMVLELRGLRTIVTTLQDSIRKVTEENKELANELRRPPLCYHNGVQYRNNEEWTVDSCTECHCQNSVTICKKVSCPIMPCSNATVPDGECCPRCWPSDSADDGWSPWSEWTSCSTSCGNGIQQRGRSCDSLNNRCEGSSVQTRTCHIQECD",stoichiometry N,3
"Trimeric TSP1 fragment, oligomerization domain + procollagen (aa 261–373) (domain or fragment, human, UniProt P07996 261-373, looked up, thrombospondin-1 (TSP1), human, oligomerization domain + procollagen, aa 261-373; Subcloned into HindIII and XbaI sites of the APtag-5 vector; also called trimeric TSP1 fragment containing the procollagen domain alone; source: HEK293E suspension culture, transient transfection, purified from culture supernatant (HisTrap Excel); not shown: Myc, C-terminal, kept) HKTKDLQAICGISCDELSSMVLELRGLRTIVTTLQDSIRKVTEENKELANELRRPPLCYHNGVQYRNNEEWTVDSCTECHCQNSVTICKKVSCPIMPCSNATVPDGECCPRCW",stoichiometry N,3
